Results from PMC4454178 (Molecular Biology of the Cell, 2015).
One block for each binder: values may come before it.

Experiments:
SAXS = biological target: the molecule itself; assay: SAXS
[1] = biological target: MBP-PDZ (PDZ domain of PICK1 fused to MBP) (human, UniProt Q9NRD5 22-105); assay: ITC

B1: MBP-PICK1 fusion protein (natural protein, human, UniProt Q9NRD5 1-415, looked up)
chain: MFADLDYDIEEDKLGIPTVPGKVTLQKDAQNLIGISIGGGAQYCPCLYIVQVFDNTPAALDGTVAAGDEITGVNGRSIKGKTKVEVAKMIQEVKGEVTIHYNKLQADPKQGMSLDIVLKKVKHRLVENMSSGTADALGLSRAILCNDGLVKRLEELERTAELYKGMTEHTKNLLRAFYELSQTHRAFGDVFSVIGVREPQPAASEAFVKFADAHRSIEKFGIRLLKTIKPMLTDLNTYLNKAIPDTRLTIKKYLDVKFEYLSYCLKVKEMDDEEYSCIALGEPLYRVSTGNYEYRLILRCRQEARARFSQMRKDVLEKMELLDQKHVQDIVFQLQRLVSTMSKYYNDCYAVLRDADVFPIEVDLAHTTLAYGLNQEEFTDGEEEEEEEDTAAGEPSRDTRGAAGPLDKGGSWCDS
stoichiometry N (SAXS): 2

Kd [1]: ~1900 nM
Binder: RHWLKV [DAT C-terminal tail peptide (6 aa)]
